According to publication PMC11876735 (Journal of Nuclear Medicine, 2025):

Key:
Conditions in all cases: in vivo
[1] = set-up: species or system patients
Protocol: Dosimetry assessments were performed using planar scintigraphy methodology routinely used at the time the study was conducted ([9],[10]). […] The geometric mean between the anterior and posterior images at each time point was calculated ([11]). Source organ radioactivity was determined at each time point, and cumulative activities were calculated ([12]). Absorbed dose values in target organs were calculated using time-integrated activity coefficients ([13]) of source organs using OLINDA/EXM version 1.0 (Hermes Medical Solutions) ([14]). A blood-based model was used to derive the cumulative activity in the red marrow and the corresponding absorbed dose ([15],[16]).

[2] = tested on: midgut neuroendocrine tumors; set-up: species or system patients
Source text: For tumor dosimetry, baseline scintigraphy was used to select tumors that were easily delineated on imaging. Tumor doses were derived using the sphere model of OLINDA/EXM version 1.0 ([14]). The ^177Lu dose factor values were interpolated for each lesion on the basis of its mass.

[3] = set-up: species or system patients; remark: listed apart in the source
Source text: Safety data were collected as previously described ([5]).

[4] = tested on: midgut neuroendocrine tumors; set-up: species or system patients; remark: listed apart in the source
Protocol: The best tumor size change from baseline was assessed in individual lesions with dosimetric estimations. Tumor size was assessed by CT using 2 dimensions (longest [L] and perpendicular [W]) for each tumor per time point. Size change was based on the ratio of tumor area (L × W) at measured times (Tt) to tumor area at baseline (Tbl) and presented as a percentage where percentage tumor size change was ((Tt/Tbl) − 1) × 100%. Positive values indicate size growth, and negative values represent size reduction. Analyses were repeated using 1 dimension (short axis for lymph node lesions and long axis for other lesions). Tumor measurements were performed at 2–7 time points at 12-wk intervals until 72 wk after the first administration. […] However, the timings of dosimetry assessments were not the same for all lesions. Lesion uptake was assumed to be proportional to mass, resulting in a constant absorbed dose at all cycles for an equivalent injected activity. The cumulative absorbed dose was calculated for each target lesion. The correlation between tumor absorbed dose and effect was assessed by plotting the best percentage tumor size change from baseline versus the tumor cumulative absorbed dose.

C[C@@H](O)[C@H](NC(=O)[C@@H]1CSSC[C@H](NC(=O)[C@@H](Cc2ccccc2)NC(=O)CN2CCN(CC(=O)O)CCN(CC(=O)O)CCN(CC(=O)O)CC2)C(=O)N[C@@H](Cc2ccc(O)cc2)C(=O)N[C@H](Cc2c[nH]c3ccccc23)C(=O)N[C@@H](CCCCN)C(=O)N[C@@H]([C@@H](C)O)C(=O)N1)C(=O)O [^177Lu-DOTATATE, [^177Lu]Lu-DOTATATE, metal not drawn]
Overall effective half-life of the elimination phase ([1]; human): 21 to 161 h | Cumulative red marrow dose [1]: 3.2 Gy | Kidney doses in three substudy patients [1]: 28-33 Gy | Kidney injected activity profile, peak [1]: around 8% | Absorbed dose for four 7.4 GBq (29.6 GBq in total), Median (range) [2]: 134 (7–2,218) Gy | Absorbed dose per unit activity, Median (range) [2]: 4.5 (0.2–74.9) Gy/GBq | Lesion activity at 160 h [2]: less than 0.01 % of injected activity | Target lesions with cumulative absorbed dose of at least 50 Gy [2]: 73.8% | Target lesions with cumulative absorbed dose of at least 100 Gy [2]: 52.3% | Absorbed dose for four 7.4 GBq (29.6 GBq in total), Mean (SD) ([2]; SD): 224 (313) Gy | Absorbed dose per unit activity, Mean (SD) ([2]; SD): 7.6 (10.6) Gy/GBq | Acute hematologic toxicity grade [3]: mild or moderate (grade 1 or 2) | Patients with grade 4 lymphopenia during treatment (acute toxicity) [3]: 20% | Patients with transient grade 3 leukopenia during treatment [3]: 10% | Severe renal toxicity [3]: no severe renal toxicity was observed | Cumulative absorbed dose range of lesions with approximately 50 Gy or greater [4]: 50–789 Gy | Lesions that received a cumulative absorbed dose of approximately 50 Gy or greater [4]: 73%
